In patent publication US20220112288A1 (published 2022):
Numbering of substitutions follows the chain as printed. One block for each binder: values may come before it.

Legend:
[1] = target: T1, human CD8 on human pan T cells (CD4-negative population) (human, UniProt P01732 22-235; P10966 22-210); assay: flow cytometry, 20 nM antibody on human pan T cells, A647 anti-human IgG Fc; geomean ratio in CD4-negative population
T1 construct: whole, on cells; Target is CD8 as it stands on primary human pan T cells

[2] = target: T2, Rhesus macaque CD4-HIS (Acro Biosystems, Cat. CD4-C52H7) (rhesus macaque, UniProt P16003 26-390); assay: BLI Octet, mAb on anti-mouse Fc sensor, rhesus CD4-HIS 25-100 nM
T2 construct: Bought reagent; also called Rhesus CD4; rhesus CD4-HIS; not shown: His tag

[3] = target: T3, human CD4 on cells (SKW3 cells; human PBMCs) (human, UniProt P01730 26-458); assay: FACS primary screen, non-clonal supernatant; SKW3 vs SKW3 CD4 KO cells, anti-human Kappa FITC detection
T3 construct: whole, on cells; The SKW3 CD4 knockout cells served as the negative cell line; also called hCD4

[4] = target: T3, human CD4 on cells (SKW3 cells; human …); assay: FACS primary screen, non-clonal supernatant; SKW3 vs SKW3 CD4 KO cells, anti-mouse Fc 647 detection
[5] = target: T3, human CD4 on cells (SKW3 cells; human …); assay: FACS confirmation, supernatant on SKW3 WT cells, anti-mFc 647; background gMFI 3300
[6] = target: T4, huCD4-HIS (human, UniProt P01730 26-390, limits assumed); assay: ELISA binning, competitor Ibalizumab; 100 ng/mL huCD4-HIS, anti-HIS HRP detection; background 45, max binding 3000000
T4 construct: Named only in the head of the Ibalizumab ELISA binning column; Neither the source nor the construct limits are told in this stretch; not shown: HIS tag

[7] = target: T3, human CD4 on cells (SKW3 cells; human …); assay: FACS confirmation, supernatant on human PBMCs, anti-mFc 647
[8] = target: T3, human CD4 on cells (SKW3 cells; human …); assay: FACS confirmation, supernatant on human PBMCs, anti-mFc 647, CD4+ gate
[9] = target: T3, human CD4 on cells (SKW3 cells; human …); assay: FACS confirmation, supernatant on SKW3 WT cells, anti-hu Kappa FITC; background gMFI 2500
[10] = target: T3, human CD4 on cells (SKW3 cells; human …); assay: FACS binning on SKW3 cells after supernatant; competitor OKT4-A488; background 2163, max binding 8200
[11] = target: T3, human CD4 on cells (SKW3 cells; human …); assay: FACS binning on SKW3 cells after supernatant; competitor OKT4a, anti-hu A647 secondary; background 5000, max binding 35000
[12] = target: T3, human CD4 on cells (SKW3 cells; human …); assay: FACS binning on SKW3 cells after supernatant; competitor RPA-T4-PE-Dazzle 594; background 783, max binding 15000

T1 sequence (P01732 22-235, chain 1 of 2): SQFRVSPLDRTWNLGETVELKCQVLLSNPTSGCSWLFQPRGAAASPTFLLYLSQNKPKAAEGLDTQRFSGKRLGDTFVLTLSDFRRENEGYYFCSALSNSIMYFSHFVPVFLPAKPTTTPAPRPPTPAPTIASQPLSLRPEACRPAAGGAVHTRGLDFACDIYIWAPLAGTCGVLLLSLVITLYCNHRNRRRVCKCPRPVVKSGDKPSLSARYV
T1 sequence (P10966 22-210, chain 2 of 2): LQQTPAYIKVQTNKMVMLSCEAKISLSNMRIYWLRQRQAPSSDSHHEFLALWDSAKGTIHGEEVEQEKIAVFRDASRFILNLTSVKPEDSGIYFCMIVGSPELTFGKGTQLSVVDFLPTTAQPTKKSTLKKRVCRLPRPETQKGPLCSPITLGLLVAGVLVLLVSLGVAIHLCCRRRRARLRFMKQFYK
T2 sequence (P16003 26-390 limits assumed): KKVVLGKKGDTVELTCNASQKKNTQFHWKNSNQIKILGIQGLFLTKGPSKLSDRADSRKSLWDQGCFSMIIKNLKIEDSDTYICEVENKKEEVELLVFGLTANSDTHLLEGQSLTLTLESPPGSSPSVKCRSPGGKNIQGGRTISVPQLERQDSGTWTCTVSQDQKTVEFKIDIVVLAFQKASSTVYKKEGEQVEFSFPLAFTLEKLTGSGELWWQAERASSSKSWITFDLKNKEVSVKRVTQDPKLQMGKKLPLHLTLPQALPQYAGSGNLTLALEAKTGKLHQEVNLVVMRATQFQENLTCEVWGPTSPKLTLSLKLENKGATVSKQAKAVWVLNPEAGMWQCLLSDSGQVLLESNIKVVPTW

binding result [2]: no binding (tested: 100 nM)
B9: 75110_02I18A (antibody, V domains shown)
VH: EVQVVESGGGLVQPGGSLRLSCAASGFTFSSYDMHWVRQATGKGLEWVSTIGTAGDTYYPGSVKGRFTISRENAKNSLYLQMNSLRAGDTAVYYCARGGYYYYGMDVWGQGTTVTVSS
VL: EIVLTQSPGTLSLSPGERATLSCRASQSVSSSYLAWYQQKPGQSPRLLIHGASSRATGIPDRVSGSGSGTDFTLTISRLEPEDFAVYYCQQYGSSPFTFGPGTKVDIK
notes: Tested as antibody purified from AlivaMab Mouse hybridoma supernatant (captured by anti-mouse IgG Fc)

binding result [2]: no binding (tested: 100 nM)
B11: 75110_04P06A (antibody, V domains shown)
VH: B9 VH with V4L, S31N, Y100D
VL: B9 VL with G9D, V29L, S32V, S44A, H50Y, V63F, S77N, A85V
notes: as for B9

binding result [2]: no binding (tested: 100 nM)
B14: 75110_03I23A (antibody, V domains shown)
VH: QVQLQESGPGLVKPSETLSLTCTASGGSITSYYWNWIRQPAGKGLEWIGRIYTSGSTNYNPSLKSRVTMSVDTSKNQFSLKLSSVTAADTAVYYCARDPGYSDAFNIWGQGTMVTVSS
VL: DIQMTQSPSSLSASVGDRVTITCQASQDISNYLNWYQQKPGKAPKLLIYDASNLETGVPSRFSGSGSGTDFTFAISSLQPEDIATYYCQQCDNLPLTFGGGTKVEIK
notes: as for B9

binding result [2]: no binding (tested: 100 nM)
B15: 75110_05A11A (antibody, V domains shown)
VH: EVQLVESGGGLVKPGGSLTLSCAASGFTFSNTWMSWVRQAPGKGLEWVGRIKSKIDGGTTDYAAPVKGRFTISRDDSKNTLYLQMNSLKTEDTAVYYCTTSGTYSSGWGLFDYWGQGTLVTVSS
VL: DIQMTQSPSSLSASVGDRVTITCQASQDISNYLNWYQQKPGKAPKLLIYDTSNLEAGVPSRFSGSGSGTHFTLTISSLQPEDIATYYCQQYDNLPFTFGGGTRVEIK
notes: as for B9

binding result [2]: no binding (tested: 100 nM)
B16: 75110_01C18A (antibody, V domains shown)
VH: EVQLVESGGGLIQPGGSLRLSCAASGFTVSSNYMNWVRQAPGKGLEWVSVIYAGDNTYSADSVKGRFTISRDNSNNTLCLQMNSLRAEDTAVYYCAREGGTTGAFDIWGQGTMVTVSS
VL: DIQMTQSPSSVSASVGDRVTITCRASQGINSWLAWYQQKPGKAPKLLIYAASSLQSGVPSRFSGSGSGTDFTLTISSLQPEDFATYYCQQGNSFPYTFGQGTKLEIK
notes: as for B9

binding result [2]: no binding (tested: 100 nM)
B17: 75110_05G15A (antibody, V domains shown)
VH: QVQLQESGPGLVKPSQTLSLTCTVSGGSISSGGYFWSWIRQHPGKGLEWIGCIYYSGSTYYIPSLKSRVTISVDTSKNQFSLKLRSVTAADTAVYYCARDGYDYWYFDLWGRGTLVTVSS
VL: not shown

The remaining lines, values behind:

B1: CD8B340 (antibody, human IgG1, kappa, V domains shown)
VH: QVQLQQPGAELVKPGASVRLSCKASGYTFTNYWMQWVQQRPGQGLEWIGEIDPSDTFTNYNQNFKDKATLTVDTSSSTAYLQLSSLTSEDSAVYYCARGDWDRDWYFDVWGTGTLVTVSA
VL: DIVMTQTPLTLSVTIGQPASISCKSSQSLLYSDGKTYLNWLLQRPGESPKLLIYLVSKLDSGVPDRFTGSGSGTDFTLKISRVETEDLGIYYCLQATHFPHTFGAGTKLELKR
notes: Full-length human IgG1, kappa
Cell Binding to Human PanT Signal/Background (of CD4 negative population) [1]: 8 signal/background

B2: 75110_04G02A (antibody, V domains shown)
VH: not shown
VL: DIVMTQSPDSLAVSLGERATINCKSSQSVLYSSNNKNYLAWYQQKPGQPPKLLFYWASARESGVPDRFSGSGSGTDFTLTISSLQAEDVALYYCQQYFGSFPTFGQGTKLEIK
notes: as for B9
binding result [2]: no binding (tested: 100 nM)

B3: CD8B362 (antibody, human IgG1, kappa, V domains shown)
VH: EVKLVESGAELVKPGASVKLSCTASGFNIKDTYMHWVKQRPEQGLEWIGRIDPANGHTKFDPKFQGKATITADTSSNTAYLQLSSLTSEDTAVYYCAIRFAYWGQGTLVTVSA
VL: DIQMTQSPSSLSASLGDRVSLTCRASHEISGYLSWLQQKPDGTFKRLIYAASTLDSGVPKRFSGSRSGSDYSLSISSLESEDFADYYCLQYSSYPYTFGSGTKLEMKR
notes: Full-length human IgG1, kappa
Cell Binding to Human PanT Signal/Background (of CD4 negative population) [1]: 4 signal/background

B4: 75110_08H11A (antibody, V domains shown)
VH: B9 VH with V4L, Y101S
VL: B9 VL with R24G, S32T, S44A, H50Y, V63F, Y92F
notes: Tested as non-clonal hybridoma supernatant from AlivaMab Mouse Kappa mice, detected with anti-mouse Fc and anti-human Kappa
SKW3 WT vs KO, anti-hKappa-FITC (ratio) [3]: 1.6 ratio | SKW3 WT vs KO, anti-mFc-647 (ratio) [4]: 2.8 ratio | gMFI, SKW3 WT anti-mFc 647 [5]: 18600 gMFI | Ibalizumab ELISA binning signal [6]: 869000 | PBMCs CD4+ percent bound of viable [7]: 31% | PBMCs CD4+ gate RL1 Binding [8]: 246000 | gMFI, SKW3 WT anti-hu Kappa FITC [9]: 5230 gMFI | OKT4 A488 signal (FACS binning) [10]: 9770 | OKT4a anti-hu A647 signal (FACS binning) [11]: 36000 | RPA-T4-PE-Dazzle 594 signal (FACS binning) [12]: 3090

B5: 75110_05F19A (antibody, V domains shown)
VH: B9 VH with V4L, S31N, M34V, A40P, Y101D, M105L
VL: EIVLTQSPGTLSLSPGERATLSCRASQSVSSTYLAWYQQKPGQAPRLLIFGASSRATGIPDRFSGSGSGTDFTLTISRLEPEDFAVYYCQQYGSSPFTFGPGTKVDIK
notes: as for B9
binding result [2]: no binding (tested: 100 nM)

B6: 75110_14H13A (antibody, V domains shown)
VH: B9 VH with V4L, S31N, E72K, N83I, Y100D
VL: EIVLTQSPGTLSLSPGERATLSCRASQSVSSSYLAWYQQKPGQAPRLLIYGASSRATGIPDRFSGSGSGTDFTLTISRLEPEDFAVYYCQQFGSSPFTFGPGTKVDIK
notes: as for B4
SKW3 WT vs KO, anti-hKappa-FITC (ratio) [3]: 1.9 ratio | SKW3 WT vs KO, anti-mFc-647 (ratio) [4]: 4.8 ratio | gMFI, SKW3 WT anti-mFc 647 [5]: 22000 gMFI | Ibalizumab ELISA binning signal [6]: 2260 | PBMCs CD4+ percent bound of viable [7]: 29% | PBMCs CD4+ gate RL1 Binding [8]: 292000 | gMFI, SKW3 WT anti-hu Kappa FITC [9]: 6010 gMFI | OKT4 A488 signal (FACS binning) [10]: 12700 | OKT4a anti-hu A647 signal (FACS binning) [11]: 14300 | RPA-T4-PE-Dazzle 594 signal (FACS binning) [12]: 1660

B7: 75110_13C07A (antibody, V domains shown)
VH: B9 VH with V4L, G10V, S31N, I69L, N83H, G99A, Y101G
VL: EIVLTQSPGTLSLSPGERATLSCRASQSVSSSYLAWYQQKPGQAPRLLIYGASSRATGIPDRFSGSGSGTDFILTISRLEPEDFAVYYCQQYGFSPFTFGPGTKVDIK
notes: as for B4
SKW3 WT vs KO, anti-hKappa-FITC (ratio) [3]: 1.6 ratio | SKW3 WT vs KO, anti-mFc-647 (ratio) [4]: 3.1 ratio | gMFI, SKW3 WT anti-mFc 647 [5]: 23100 gMFI | Ibalizumab ELISA binning signal [6]: 1.7e+06 | PBMCs CD4+ percent bound of viable [7]: 35% | PBMCs CD4+ gate RL1 Binding [8]: 303000 | gMFI, SKW3 WT anti-hu Kappa FITC [9]: 5720 gMFI | OKT4 A488 signal (FACS binning) [10]: 9590 | OKT4a anti-hu A647 signal (FACS binning) [11]: 38900 | RPA-T4-PE-Dazzle 594 signal (FACS binning) [12]: 2510

B8: 75110_01K10A (antibody, V domains shown)
VH: B9 VH with V4L, G10A, S30R, S31N, Y100D
VL: B9 VL with G9D, V29L, S32V, S44A, H50Y, V63F, S66T
notes: as for B9
binding result [2]: no binding (tested: 100 nM)

B10: 75110_08H06A (antibody, V domains shown)
VH: B9 VH with V4L, S31N, Y101D
VL: B9 VL with V29I, S30T, S32I, Q38R, S44A, H50Y, V63F
notes: as for B4
SKW3 WT vs KO, anti-hKappa-FITC (ratio) [3]: 1.6 ratio | SKW3 WT vs KO, anti-mFc-647 (ratio) [4]: 3 ratio | gMFI, SKW3 WT anti-mFc 647 [5]: 23000 gMFI | Ibalizumab ELISA binning signal [6]: 1.42e+06 | PBMCs CD4+ percent bound of viable [7]: 30% | PBMCs CD4+ gate RL1 Binding [8]: 225000 | gMFI, SKW3 WT anti-hu Kappa FITC [9]: 6270 gMFI | OKT4 A488 signal (FACS binning) [10]: 10400 | OKT4a anti-hu A647 signal (FACS binning) [11]: 29900 | RPA-T4-PE-Dazzle 594 signal (FACS binning) [12]: 2480

B12: 75110_10N21A (antibody, V domains shown)
VH: B9 VH with V4L, A40V
VL: B9 VL with V29F, S30I, S44A, H50Y, V63F, E80D, Y92S, S94N, I107V
notes: as for B4
SKW3 WT vs KO, anti-hKappa-FITC (ratio) [3]: 1.4 ratio | SKW3 WT vs KO, anti-mFc-647 (ratio) [4]: 3.1 ratio | gMFI, SKW3 WT anti-mFc 647 [5]: 13000 gMFI | Ibalizumab ELISA binning signal [6]: 1.58e+06 | PBMCs CD4+ percent bound of viable [7]: 33% | PBMCs CD4+ gate RL1 Binding [8]: 179000 | gMFI, SKW3 WT anti-hu Kappa FITC [9]: 4060 gMFI | OKT4 A488 signal (FACS binning) [10]: 9090 | OKT4a anti-hu A647 signal (FACS binning) [11]: 40100 | RPA-T4-PE-Dazzle 594 signal (FACS binning) [12]: 6880

B13: CD8B311 (antibody, human IgG1, kappa, V domains shown)
VH: QVQLKESGPELVKPGASVKLSCKASGYTFTSYWMHWVKQRPGQGLEWIGMIHPNSGSTNYNEKFKSKATLTVDKSSSTAYMQLSSLTSEDSAVYYCARCGYDGAWFAYWGQGTSVTVSS
VL: DIQMTQTTSSLSASLGDRVTISCSASQGISNCLNWYQQKPDGTVKLLIHYTSSLHSGVPSRFSGGGSGTHYSLTISNLEPEDIATYYCQQYSKVPYTFGSGTKLEIKR
notes: Full-length human IgG1, kappa
Cell Binding to Human PanT Signal/Background (of CD4 negative population) [1]: 1 signal/background
